Measurements taken from patent CN113583127A (MABWELL SHANGHAI BIOTECHNOLOGY CO LTD, dated 2021).
Numbering of substitutions follows the chain as printed.

Legend:
[1] = molecular target: mFc-NKG2A-CD94重组蛋白 (human) (UniProt P26715); assay: BLI (Octet QKe), antibody captured on AHC probe, mFc-NKG2A-CD94 as analyte, 1:1 fit
[2] = molecular target: T1, 人NKG2A/CD94 (Flp-in CHO稳定表达细胞株表面) (human, UniProt P26715 1-233; Q13241 1-179); assay: flow cytometry, Fab titrated on CHO cells expressing human NKG2A/CD94; column head KD[nM], title and text call it EC50
T1 construct: whole, on cells; also called 细胞表面人NKG2A/CD94; huNKGA/huCD94

[3] = molecular target: PD-L1-ECD-mFc (UniProt Q9NZQ7); assay: competition ELISA: PD-1-hFc coated, 3 nM PD-L1-ECD-mFc with titrated antibody, detection with HRP anti-mouse Fc
Chain of UniProt Q9NZQ7 (Q9NZQ7 19-239): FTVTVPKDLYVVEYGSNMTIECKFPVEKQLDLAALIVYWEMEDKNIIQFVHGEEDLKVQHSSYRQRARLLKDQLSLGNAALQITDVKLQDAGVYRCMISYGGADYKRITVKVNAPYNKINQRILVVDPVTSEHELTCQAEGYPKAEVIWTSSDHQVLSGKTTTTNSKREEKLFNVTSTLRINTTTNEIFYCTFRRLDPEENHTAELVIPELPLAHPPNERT

T1 sequence (P26715 whole entry, chain 1 of 2): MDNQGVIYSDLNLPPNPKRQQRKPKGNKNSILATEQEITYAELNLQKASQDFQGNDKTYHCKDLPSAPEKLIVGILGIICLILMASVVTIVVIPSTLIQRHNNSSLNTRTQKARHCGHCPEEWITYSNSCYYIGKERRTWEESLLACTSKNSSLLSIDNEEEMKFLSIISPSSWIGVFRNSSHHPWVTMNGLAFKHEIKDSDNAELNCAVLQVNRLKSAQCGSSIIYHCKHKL
T1 sequence (Q13241 whole entry, chain 2 of 2): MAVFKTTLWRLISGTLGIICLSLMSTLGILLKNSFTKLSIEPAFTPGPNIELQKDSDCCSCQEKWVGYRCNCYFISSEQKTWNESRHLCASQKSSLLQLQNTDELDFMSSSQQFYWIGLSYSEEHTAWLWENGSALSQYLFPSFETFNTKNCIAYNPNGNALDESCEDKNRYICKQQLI

B1: hum270重组抗体 (antibody, V domains shown)
VH: EVQLVQSGAEVKKPGASVKVSCKASGYTFTSYWMNWVRQAPGQGLEWMGRIDPYDSETHYAQKLQGRVTMTTDTSTSTAYMELRSLRSDDTAVYYCARGGYDFDVGTLYWFFDVWGQGTTVTVSS
VL: DIQMTQSPSSLSASVGDRVTITCRASENIYSYLAWYQQKPGKAPKLLIYNAKTLAEGVPSRFSGSGSGTDFTLTISSLQPEDFATYYCQHHYGTPRTFGGGTKVEIK
Kd [1]: 0.408 nM
koff [1]: 0.000196 s⁻¹
kon [1]: 481000 M⁻¹ s⁻¹

B2: AM00 Fab (Fab, V domains shown)
VH: B1 VH
VL: B1 VL
notes: also called 亲本抗体AM00; 模板抗体Fab
Kd [2]: 189 nM

B3: 抗NKG2A和抗PD-L1双特异性抗体hum270-F2 (bispecific antibody, part only; not given: Anti-PD-L1 nanobody F2, linker, constant regions, IgG4, not shown: a dimerising Fc or GST)
heavy, part: B1 VH
light, part: B1 VL
IC50 [3]: 2.86 nM

B4: AM10 Fab (Fab, V domains shown)
VH: B1 VH with G26S, T28D, T30S, S31W, M34I
VL: B1 VL
Kd [2]: 1.43 nM
